Reference: patent US6855515B1, “Autoantigenic fragments, methods and assays” (Merck & Co., Inc., priority 1998, dated 2005)
Entries after “also recorded” stand apart in the source; their conditions may differ.

Tests used:
SP1 [1] = settings: Casciola-Rosen et al., 1996; cited from earlier work
granzyme B = target: T1, granzyme B (Homo sapiens, UniProt P10144); experiment: In vitro cleavage of substrates by purified granzyme B, kcat/Km from densitometry; type: biochemical; settings: in the presence of 10 μg/ml DNA
T1 construct: Some of these preparations were used for the further purification of granzyme B (Tschopp, 1994); endogenous in cells; host or cells: YT cells (human NK cell line), cytoplasmic granules
Protocol: cDNAs for caspase-3, caspase-7, NuMA and PARP were used to drive the synthesis of [^35S]methionine-labeled proteins by coupled transcription/translation in rabbit reticulocyte lysates. For all purified substrates, cleavage reactions were performed in buffer consisting of 50 mM Hepes pH 7.4, 10% sucrose and 5 mM DTT in the presence of the granzyme B concentrations indicated in FIG. 1. After incubation at 37° C. for 15 min, reactions were terminated and samples were electrophoresed on 10% (DNA-PKcs, NuMA), 12% (PARP) or 15% (caspases 3 and 7) SDS-polyacrylamide gels. Radiolabeled proteins and their fragments were visualized by fluorography. Intact and cleaved DNA-PKcs were visualized by immunoblotting with monoclonal antibody 18-2 (Casciola-Rosen et al., 1995).
Catalytic constant (kcat/km) values were calculated essentially as described (Casciola-Rosen et al., 1996). Briefly, subsaturating substrate concentrations were used in each in vitro reaction, and product appearance was assumed to be a first order process. […] Several appropriate densitometry systems are available, e.g. PDI Discovery System, with Quantity One Software, Protein Databases, Inc., (Huntington Station, N.Y.). kcat/Km values were calculated by fitting the dose-response data to the first order rate equation: percent substrate cleavage=100*((1^-e-((kcat*[E]/Km)*time)). […]

SP1 [2] = experiment: DNA-PKcs kinase assay (SP1 phosphorylation); type: biochemical; settings: 12.5 nM granzyme B, 13.5 min, 37° C., then DNA, ATP
Protocol: Kinase assays were performed on intact DNA-PKcs or DNA-PKcs that had first been cleaved by granzyme B as follows. Reaction mixtures containing 10 mM Hepes pH 7.4, 2 mM MgCl2, 10 mM KCl, 2.7 mM DTT, and 50 ng DNA-PKcs in the absence or presence of 12.5 nM purified granzyme B, were incubated for 13.5 min at 37° C. Kinase reactions were subsequently initiated by adding 100 ng SP1 and 150 μM ATP containing 1.5 μCi [^32P]-ATP (3000 Ci/mmol), in the absence or presence of 10 μg/ml sheared herring sperm DNA (Promega). Samples were incubated at 37° C. for 10 min (well within the linear range of the assay, data not shown), before terminating the reactions by adding SDS gel buffer and boiling. After electrophoresing the samples on 8% SDS-PAGE, SP1 phosphorylation was detected by autoradiography, and quantitated by densitometry. Cleaved status of the kinase was confirmed in parallel by immunoblotting.

T1 sequence (P10144 21-247): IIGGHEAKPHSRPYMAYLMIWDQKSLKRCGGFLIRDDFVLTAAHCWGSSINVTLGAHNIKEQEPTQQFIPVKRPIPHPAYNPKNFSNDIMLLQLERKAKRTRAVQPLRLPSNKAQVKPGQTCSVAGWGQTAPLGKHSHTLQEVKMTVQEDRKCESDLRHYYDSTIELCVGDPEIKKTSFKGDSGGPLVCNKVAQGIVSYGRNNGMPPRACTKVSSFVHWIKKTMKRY

Substance: DNA-dependent protein kinase catalytic subunit [DNA-PKCS]
- kinase activity of DNA-PKcs after caspase-3 cleavage (SP1 [1]): approximately 60 % of control levels
- decrease of DNA-PKcs cleavage by granzyme B (granzyme B): approximately 90%
- kinase activity of DNA-PKcs after cleavage by granzyme B (SP1 [2]): entirely abolished; also recorded: completely abrogates
